These results are taken from paper PMC3282181.

For data set [1], the target named is T1, TIA-Mut3 (Homo sapiens, UniProt P31483-2 1-274, Y206A;F242A).
T1 sequence: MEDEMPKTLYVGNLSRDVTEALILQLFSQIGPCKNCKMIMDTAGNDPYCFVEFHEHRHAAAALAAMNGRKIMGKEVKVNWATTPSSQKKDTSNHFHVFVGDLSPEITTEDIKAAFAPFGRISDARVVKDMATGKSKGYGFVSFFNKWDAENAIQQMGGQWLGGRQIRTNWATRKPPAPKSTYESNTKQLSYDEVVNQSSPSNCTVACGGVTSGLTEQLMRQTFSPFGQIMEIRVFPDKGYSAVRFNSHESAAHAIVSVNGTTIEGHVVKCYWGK
Put plainly: ITC.

Data set [2] has as its target T2, wtTIA-RRM123 (Homo sapiens, UniProt P31483-2 1-274).
T2 sequence: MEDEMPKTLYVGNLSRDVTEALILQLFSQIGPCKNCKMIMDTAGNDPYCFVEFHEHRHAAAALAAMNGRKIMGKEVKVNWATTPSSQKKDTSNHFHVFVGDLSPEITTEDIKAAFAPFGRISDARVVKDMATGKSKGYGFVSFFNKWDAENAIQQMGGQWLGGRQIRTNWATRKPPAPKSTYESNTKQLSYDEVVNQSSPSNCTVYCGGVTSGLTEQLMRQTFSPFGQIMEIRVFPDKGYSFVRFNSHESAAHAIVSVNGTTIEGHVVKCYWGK
Nature of the data set: ITC. (In ITC the heat of successive injections is recorded.)

Data set [3] addresses T1, TIA-Mut3. Nature of the data set: ITC. The source holds these as a separate data set.
Data set [4] deals with T2, wtTIA-RRM123. Nature of the data set: ITC. The source holds these as a separate data set.
For data set [5], the target named is T2, wtTIA-RRM123. Nature of the data set: ITC. This is another data set of the same source.
The target in data set [6] is T2, wtTIA-RRM123. Put plainly: EMSA. (In general: A gel shift assay detects complexes by their altered migration in electrophoresis.)

Usually Kd stands for the concentration at which binding is half-saturated. Low values mean tighter binding, high ones weaker binding.

Like-named read-outs stand apart in the source and are kept apart here.

Regarding UUUUUUUUUUUUUUUUUUUU (ssRNA) [U20 RNA], the Kd came to 14.4 ± 6.1 nM in the data set with TIA-Mut3 [1]; 0.5 ± 0.1 nM with wtTIA-RRM123 [2]; 1270 ± 60 nM in the data set with TIA-Mut3 [3]; 620 ± 70 nM with wtTIA-RRM123 [4]; 240 ± 10 nM in the data set with wtTIA-RRM123 [5].
In the case of UUAUUUAUUUA (ssRNA) [tnf-a ARE RNA (11 nt)], the binding result with wtTIA-RRM123 [6] was “binds”.
